Test results from publication PMC11570452, “MOTS-c modulates skeletal muscle function by directly binding and activating CK2” (iScience, 2024).

B1: MOTS-c (mitochondrial open reading frame of the 12S ribosomal RNA type-c), wild type (peptide)
peptide: MRWQEMGYIFYPRKLR
notes: MOTS-c, human, 16-amino acid microprotein encoded in the mitochondrial 12S rRNA region; also called WT MOTS-c; synthetic MOTS-c; source: synthetic peptide, bought: GenScript; for the co-IP injected into mice (7.5 mg/kg) and found in tissue lysate
B2: K14Q MOTS-c (naturally occurring MOTS-c variant) (peptide, UniProt A0A0C5B5G6 1-16, looked up)
peptide: MRWQEMGYIFYPRQLR
notes: MOTS-c, human, natural variant m.1382A>C causing K14Q; source: synthetic peptide, bought: GenScript

Molecular target: T1, CK2α (recombinant, GenScript) (UniProt P68400 1-391)
T1 construct: CK2α, catalytic alpha subunit of casein kinase II; No catalogue number, species or construct is printed; also called CK2α subunit; CK2 alpha; source: bought: GenScript
T1 sequence (P68400 whole entry): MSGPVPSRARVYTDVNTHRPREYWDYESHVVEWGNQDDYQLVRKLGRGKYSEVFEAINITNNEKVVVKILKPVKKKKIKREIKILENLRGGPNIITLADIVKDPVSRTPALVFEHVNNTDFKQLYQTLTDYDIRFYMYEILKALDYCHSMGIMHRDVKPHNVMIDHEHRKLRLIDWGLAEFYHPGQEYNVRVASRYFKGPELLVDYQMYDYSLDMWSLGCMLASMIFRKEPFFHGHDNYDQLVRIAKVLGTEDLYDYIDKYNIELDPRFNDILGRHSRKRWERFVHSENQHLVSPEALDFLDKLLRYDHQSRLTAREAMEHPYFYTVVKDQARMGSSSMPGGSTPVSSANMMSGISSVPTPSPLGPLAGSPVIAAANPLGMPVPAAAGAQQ
Test: SPR; Biacore T200; MOTS-c or K14Q MOTS-c (10 μg/mL, 10 mM sodium acetate pH 5.0) immobilised on CM5 chip (278 RU and 193 RU); first 70 nM CK2α or CK2β, then CK2α at 2.5, 5.0, 10 and 20 nM flowed at 30 μL/min in 0.01 M HEPES, 0.15 M NaCl, 0.3 mM EDTA, 0.05% tween
Details: both partners purified

Row | Binder | Kd [nM]
1 | B1 | 1
2 | B2 | 16.2
